± gives the uncertainty stated by the source.
Assay: amyloid nucleation score (Sup35N fusion, yeast selection) (log enrichment); library NNK3; higher = more nucleation; inactive = no reads after selection
In short: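 In psi-negative yeast, Sup35N fusions carrying peptides of 20 random codons were induced with 100 μM copper sulfate for 24 hours. The cells then grew 7 days at 30°C on medium lacking adenine and uracil, and plasmid inserts from input and output were Illumina-sequenced, excluding sequences with under 100 input reads. Nucleation score is the DiMSum log enrichment of output over input reads, centred on the mode score of non-aggregating sequences.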

Substance | amyloid nucleation score
GVVANFSLPLSAVFAWRSFR | 2.78 ± 0.055
WQSRTKP | inactive
CCFVRWGFGC | 1.38 ± 0.091
YRFTRKDSPSSKVKMISNSW | inactive
ALWYENDCRWLDEVHRARTG | inactive
NNVKRSSPDSQVPSQVSMRF | inactive
VFAFGNIGLVRWFVI | inactive
GGSCLSNPVGKYGILWWMLS | inactive
IHSPKLLAGAM | inactive
LLRTL | inactive
SHGLVIVRTKRPSNGFENGW | inactive
VACTVSEAYKCTLIWTHLVR | inactive
ILDMSERFQILNNFR | inactive
PMMWSVVVYNTNIYGLVCAM | 1.26 ± 0.08
IFSHSSPYNTPRK | inactive
VHSCEMSSPPTILKVKLVYL | inactive
DSDVWANAGHRLSLKMI | inactive
SVYYTPCAFFRLIEGNLEGL | inactive
YVMNHTLGAILNAFRGI | 1.04 ± 0.17
RFGFSVKFMYDDGMSAVCTS | inactive
DMHGRSNNLW | inactive
VWRSNF | inactive
KVIDGFLTLLSVNHRCKAWQ | inactive

Substance | amyloid nucleation score
CHPGASSTGSKLTSRNCL | inactive
GNTVEGKLE | inactive
LNDLCKMPVSLFIHGLCLMT | inactive
NCGNAPFGFVRP | inactive
VVVKKSVVDAWSAYYFRLFV | inactive
NLLYSCVYRHQPLYPAMDFP | inactive
MGVVNFVITGNSYCAKVMLY | inactive
WTLARFTSD | inactive
ALGKRSLLR | inactive
IAYIT | inactive
FPMSIESDSLNSGRGLRPWG | inactive
RDPSQNTSKHLSNVAFISLY | inactive
IRRFIKNIVYTYGHLLLEAH | inactive
ACGRVNVCYLTPMVRHSGRS | inactive
VSASILS | inactive
VFFVNHFNVWLERM | inactive
KLNILKTGMLCYVPHLIAHI | inactive
CVCPKANVEYPMACFRHIIV | inactive
LGVRCYNFIRFKYLSCLRLP | inactive
WTKSFSSNSTQVSQYYSFNL | inactive
HWHRLTSCGSRLGTGVHVVL | inactive
MILILY | inactive
NFRNRMRVLFSCS | inactive

Substance | amyloid nucleation score
NKSYNDRARYVARGRDI | inactive
RRSKISLS | inactive
TPLESGLSI | inactive
WWADA | inactive
CVVYIGCNATGFKC | 1.87 ± 0.059
LFSQHYWIVSIFIASWIRYC | inactive
NLKKARSTSFIDEPECRPRP | -0.406 ± 1.1
NRFLNIQKRSTPLNLPSSSV | inactive
SSDRLYFINGRMRNRFARFC | inactive
KYKSVCVKFNEDLTG | inactive
YVICVISVQRWTM | inactive
ILSTIVMFLVPSYHLFWLWA | inactive
LCCGKCRPGPKFCTKISHTN | inactive
VFDGWGLFRLSTICMCLQRH | inactive
HFLLNWSRQI | inactive
RHSILVSYFHWWFRDWKPFW | inactive
LDTYTRNYLD | inactive
LRAFMYLFTYKTWIRTSNGV | inactive
VSDRVSLSVGG | inactive
NRDNAEQYYRPTVTVCSEGW | inactive
LDYPNVCMDFLSKVFRDSVR | inactive
CHQKMSVA | inactive
VVIFFRIQRVTCVWNVLL | inactive

Substance | amyloid nucleation score
RWSVLILNPPISKKHPDDK | 0.345 ± 0.69
MYLDIESDMSNTGAE | inactive
SYFTMTDSSFSVAFANLLVY | 0.289 ± 0.78
FSYSFVTRDMATYGRTLVKS | inactive
VRQHCQMLMILFLYPLACGS | inactive
VAFYMMYSSGPQRTRRWVTV | inactive
EGSIQMWTGTSLLDTRIWGG | inactive
HIVKKFPSPMRITWCGSPFQ | inactive
LMPSDFISSYNSLYDGCLGG | inactive
KSVVGFFVSARYCCTLGTGG | inactive
PFWWPRKQLYVSQSRKTTAS | inactive
TVTFYNCIVGCVSNWVSVQG | 1.77 ± 0.068
HFVLWHLKGSQFGGSVAVIQ | inactive
HGSYSDGVEVNEFRLGTRVG | inactive
IQLWRTADGVYKVSGVNK | inactive
SNRYVCLAYYFSE | 0.154 ± 0.49
IVSCLSCHLCLKCYSPLCVL | 0.851 ± 0.12
IWQFRGSPSVYSARREWIDT | inactive
GGLDFSSLSLMWYTQSSHKV | inactive
SYSSGSSNNKS | inactive
IYCVEERHFLNIYSRMSYYS | inactive
VHVLVVWYFAFTCVCRVPFG | 0.228 ± 0.85
IDQDFMTVIRQS | inactive

Substance | amyloid nucleation score
WPKLVGCYRGSKGINGRVLY | inactive
ISQGFGCEFVFWFEEGKFFH | inactive
CANANVP | inactive
YGSIIV | inactive
YKDRR | inactive
AALAY | inactive
NRYLLRVVLYNSLTRLTVGF | inactive
QVNFGRGQRTLVWTGIRCSH | inactive
LYHTLKTHVKIFPCHSTDAP | inactive
LKRYDVQSSTGVNLTYGTYT | inactive
ERVLRVNHYWICSFPFNPGV | inactive
RWAKSEAVLLVFGEFSLVGW | inactive
PIQGAMTRNYRFRTGRGFCL | 0.882 ± 0.2
YFLYLFRSVQCMLCHALNFN | 0.586 ± 0.15
HVFFMKTEEPCTPEY | inactive
DYCGDCMILFCTLVGYDRCT | 2.06 ± 0.068
YITVRR | -0.297 ± 1.1
TVSYSQPVWSMDFIVGYLGV | inactive
GNRLALVYLGRILPL | inactive
FATFYVQQGFGNFAPKAYS | inactive
LFQLHMVLSF | inactive
SIGCIHARCAYEEFDMVVIC | inactive
CLFWMTWDVSRDS | inactive

Substance | amyloid nucleation score
FIWIT | inactive
TWWSEGIYELKYGLFWLGVV | inactive
HKSVLFNTRSSCRTSVLIVR | inactive
YLCLWCVEQLMYCRPRRLEE | inactive
MCGQE | inactive
RNANSNWSRPVLNAWSLNEV | inactive
ASTSD | inactive
SHRNTKKFMEWIFLYFIPTM | 0.064 ± 0.62
CMAFLHPLF | inactive
FILFRYVTNALRKSAWVRLC | inactive
CLFGHGY | inactive
FHPFFIGVGSFLGSLHEFQS | inactive
CIAYNMVSDYVSIGFNAGDM | inactive
SDGSCRVRAFYSYKGALVSF | inactive
DVFRRFAGRTLQLSPWDTTL | inactive
GIANRAFITDGGWGLFISTY | inactive
SRTAKSFDATWMITFYGWGP | inactive
GVGTYI | inactive
SLLLTSWESVYIMRGLDRTI | 0.086 ± 0.42
ESSHRTSIFRDWCNSLLI | inactive
ICYIPY | inactive
PSLLQVHKCLRIRLIWRWLW | inactive
YGKQVLWN | inactive

Substance | amyloid nucleation score
ILTHTEVCIPSVRTLSGCKG | inactive
AVTYNGYDHYYRDVARHCLR | inactive
FNNFRFTGQHR | inactive
WNNRWVCNLSTSSGMNLLDR | inactive
WIVKL | inactive
SGAQARDV | inactive
DWSPLAGRRMTSAVDGVSMD | inactive
YINLVFQNCAVDGRSSKGYW | 2.67 ± 0.081
KLLLMGCRDVYFSYRIFM | 3 ± 0.054
LIEDVYLWLCYHRVGYLSAS | inactive
QYGSLGSTYTSAYLWRLYVL | inactive
PSRIGSDFSRFLSEECGQLR | inactive
ANSTAAVKSLGRV | inactive
FIFSTLHNVLHGSNRVNSVW | inactive
RFSYWGKDRSRVSNL | inactive
RSDGRCEYKSWCNVQLKVE | inactive
SLGISKSG | inactive
LVVRNVEVPIHR | inactive
CKTMFYY | inactive
VGLNVSWAYIMVAEYVVYMS | -0.698 ± 0.53
IAVQLEILAY | inactive
